Among the data in patent WO2019024911A1 (dated 2019) are EC50 and Kd values, retold here.

Experiment [1] concerns the target T1, human B7H3 antigen for detection, 4Ig-B7H3 (SinoBiological cat#11188-H08H) (human, UniProt Q5ZPR3 29-461).
T1 construct: Commercial product; also called human 4Ig-B7H3
T1 sequence: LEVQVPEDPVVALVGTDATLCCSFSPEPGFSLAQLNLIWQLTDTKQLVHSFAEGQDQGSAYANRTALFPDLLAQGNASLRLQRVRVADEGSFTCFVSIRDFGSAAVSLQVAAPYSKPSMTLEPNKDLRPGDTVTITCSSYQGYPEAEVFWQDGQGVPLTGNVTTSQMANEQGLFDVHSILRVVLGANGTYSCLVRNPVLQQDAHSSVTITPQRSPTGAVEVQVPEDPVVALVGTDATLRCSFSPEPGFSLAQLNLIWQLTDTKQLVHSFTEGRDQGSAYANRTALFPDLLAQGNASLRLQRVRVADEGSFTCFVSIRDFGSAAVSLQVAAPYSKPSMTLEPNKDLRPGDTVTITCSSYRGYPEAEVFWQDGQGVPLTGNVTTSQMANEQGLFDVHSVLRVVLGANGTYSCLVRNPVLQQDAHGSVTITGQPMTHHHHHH
Description: ELISA, antigen coated at 1 ug/ml, HRP anti-human IgG Fc detection (column of the single value not certain). For orientation: In an ELISA, binding on a coated surface is turned into a signal by an enzyme label.

For experiment [2], the target named is T1, human B7H3 antigen for detection, …. Put plainly: SPR (Biacore T200), ADC captured on Protein A chip, antigen in flow, 1:1 Langmuir fit (column of the single value inferred).
Experiment [3] addresses T2, human B7H3 antigen for screening and detection, 2Ig-B7H3 (R&D cat#1949-B3-050/CF) (human, UniProt Q5ZPR3 29-245).
T2 construct: Commercial product; also called human 2Ig-B7H3
T2 sequence: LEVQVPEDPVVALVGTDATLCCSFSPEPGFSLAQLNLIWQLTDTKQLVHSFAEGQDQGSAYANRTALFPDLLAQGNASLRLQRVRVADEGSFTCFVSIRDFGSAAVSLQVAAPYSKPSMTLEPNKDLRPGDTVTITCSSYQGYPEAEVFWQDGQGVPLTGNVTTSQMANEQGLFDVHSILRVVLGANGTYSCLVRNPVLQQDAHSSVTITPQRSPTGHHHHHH
Description: ELISA, antigen coated at 1 ug/ml, HRP anti-human IgG Fc detection.

Experiment [4] addresses T1, human B7H3 antigen for detection, …. The description is as above.
In experiment [5] the target is T3, murine B7H3 antigen for screening and detection (R&D cat#1397-B3-050/CF) (mouse, UniProt Q8VE98 29-244).
T3 construct: Commercial product; also called mouse B7H3
T3 sequence: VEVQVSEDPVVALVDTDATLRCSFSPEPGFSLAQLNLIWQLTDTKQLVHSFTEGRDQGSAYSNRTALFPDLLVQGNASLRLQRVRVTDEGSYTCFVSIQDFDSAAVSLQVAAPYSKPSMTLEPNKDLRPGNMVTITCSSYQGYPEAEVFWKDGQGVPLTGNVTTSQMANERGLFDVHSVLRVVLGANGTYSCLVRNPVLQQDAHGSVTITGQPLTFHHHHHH
Description: ELISA, mouse B7H3 coated at 1 ug/ml, HRP anti-human IgG Fc detection.

The target of experiment [6] is T2, human B7H3 antigen for screening and …. Put plainly: SPR (Biacore T200), antibody captured on Protein A chip, antigen in flow, 1:1 Langmuir fit.
The target in experiment [7] is T1, human B7H3 antigen for detection, …. Described as above.
In experiment [8] the target is T2, human B7H3 antigen for screening and …. Description: SPR (Biacore T200), ADC captured on Protein A chip, antigen in flow, 1:1 Langmuir fit (column of the single value inferred). In general terms: SPR reads the build-up and loss of mass on a sensor chip optically.
The target is the same in experiment [9]. Put plainly: SPR (Biacore T200), ADC captured on Protein A chip, antigen in flow, 1:1 Langmuir fit.
Experiment [10] has as its target T1, human B7H3 antigen for detection, …. Described as above.

B1: B7H3-h1704-3-cys-3024 (antibody-drug conjugate of humanized h1704-3 with drug-linker 3024 on cysteines) (antibody, human IgG1, kappa, V domains shown)
VH: EVQLVESGGGLVKPGGSLRLSCAASGFTFSRYGMSWVRQAPGKGLEWVSAISSGGGSIYYPDTVKGRLTISRDNAKNTLYLQMNSLRAEDTAVYYCTRHYLLFEMDYWGQGTTVTVSS
VL: DIVLTQSPSFLSASVGDRVTITCKASQNVNTAVAWYQQKPGKAPKLLIFSASNRYTGVPSRFSGSGSGTDFTLTISSLQPEDVAAYFCQQYSSSLTFGGGTKLEIKR
modifications: drug-linker 3024 on cysteine thiols after TCEP reduction; positions not given; average y = 3.4 per antibody
notes: Antibody-drug conjugate made from antibody h1704-3 (IgG1, kappa)
B1: in experiment [1], the EC50 was found to be 0.09 nM. This molecule returned a Kd in experiment [2] of 0.778 nM.

B2: h1702 antibody (fully human anti-B7H3 full-length antibody) (antibody, human IgG1, lambda)
heavy: not shown
light: QTVVTQEPSFSVSPGGTVTLTCGLSSGSVSTSHYPSWYQQTPGQAPRMLIYNTNTRSSGVPDRFSGSILGNKAALTITGAQADDESDYYCAIHVDRDIWVFGGGTKLTVLGQPKANPTVTLFPPSSEELQANKATLVCLISDFYPGAVTVAWKADGSPVKAGVETTKPSKQSNNKYAASSYLSLTPEQWKSHRSYSCQVTHEGSTVEKTVAPTECS
notes: IgG1 heavy chain, lambda light chain; naked antibody expressed in HEK293E cells; also called B7H3-h1702
Take B2: the EC50 in experiment [3] worked out at 0.11 nM; in [4], 0.16 nM; in experiment [5] it was 18.1 nM. In addition, the Kd in experiment [6] was 797 nM; in experiment [7], 8.55 nM.

B3: B7H3-h1702-L2-MC-MMAF (antibody-drug conjugate of h1702 with MC-MMAF) (antibody, human IgG1, lambda)
heavy: not shown
light: B2 light
modifications: MC-MMAF coupled through a propylthiol linker (L2) to lysine residues of the antibody; positions not given; average y = 1.76 per antibody
notes: also called h1702-MMAF
As for B3, the Kd in [8] stood at 452 nM. Moreover, the results for the EC50 in experiment [3], in experiment [4] and in [5] were 0.16 nM, 0.18 nM and 59 nM, respectively.

B4: B7H3-h1702-L2-3024 (antibody-drug conjugate of h1702 with drug-linker 3024) (antibody, human IgG1, lambda)
heavy: not shown
light: B2 light
modifications: drug-linker 3024 coupled through a propylthiol linker (L2) to lysine residues of the antibody; positions not given; average y = 2.05 per antibody
notes: also called h1702-3024
Consider B4, for which the EC50 worked out at 0.17 nM in experiment [3], 0.26 nM in experiment [4] and 131 nM in experiment [5]. For the same molecule, the values for the Kd in experiment [9] and in [10] were 580 nM and 10.5 nM, respectively.

B5: B7H3-h1702-cys-3024 (antibody-drug conjugate of h1702 with drug-linker 3024 on cysteines) (antibody, human IgG1, lambda)
heavy: not shown
light: B2 light
modifications: drug-linker 3024 on cysteine thiols after TCEP reduction; positions not given; average y = 3.5 per antibody
In turn, B5 had an EC50 in [1] of 0.29 nM. Further, in experiment [2], the Kd came out at 11.2 nM.

B6: B7H3-h1702DS-cys-3024 (antibody-drug conjugate of h1702-DS with drug-linker 3024 on cysteines) (antibody, human IgG1, lambda)
heavy: not shown
light: DTVVTQEPSFSVSPGGTVTLTCGLSSGSVSTSHYPSWYQQTPGQAPRMLIYNTNTRSSGVPDRFSGSILGNKAALTITGAQADDESDYYCAIHVDRDIWVFGGGTKLTVLGQPKANPTVTLFPPSSEELQANKATLVCLISDFYPGAVTVAWKADGSPVKAGVETTKPSKQSNNKYAASSYLSLTPEQWKSHRSYSCQVTHEGSTVEKTVAPTEC
modifications: drug-linker 3024 on cysteine thiols after TCEP reduction; positions not given; average y = 3.55 per antibody
For the molecule B6, the EC50 in experiment [1] is 0.3 nM. Also, the Kd in [2] was determined as 10.6 nM.

B7: B7H3-h1703-L2-MC-MMAF (antibody-drug conjugate of h1703 with MC-MMAF) (antibody, human IgG1, kappa, V domains shown)
VH: QVQLQESGGGLVQPGGSLRLSCAASGFTFSSYAMSWVRQAPGKGLEWVSAISGSGGSTYYADSVKGRYTISRDNSKNTLYLQMNSLRAEDTAVYYCAKGVGPVHALDVWGQGTTVTVSS
VL: DIRLTQSPSSLSASVGDRVTITCRASQSISTYLNWYQQKPGKAPILLINAVSGLQSGVPSRFSGSGSGTHFTLTITSLQPEDFATYYCQQSYSTPMWTFGQGTKVEIKR
modifications: MC-MMAF coupled through a propylthiol linker (L2) to lysine residues of the antibody; positions not given; average y = 2.29 per antibody
notes: also called h1703-MMAF
B7: the Kd in experiment [8] worked out at 193 nM. Also, the EC50 in [3] came out at 2.36 nM; in [4], 3.08 nM; in experiment [5], 116 nM.

B8: h1703 antibody (fully human anti-B7H3 full-length antibody) (antibody, human IgG1, kappa, V domains shown)
VH: B7 VH
VL: B7 VL
notes: IgG1 heavy chain, kappa light chain; naked antibody; also called B7H3-h1703
Turning to B8, the 50% effective concentration (EC50) was 10.3 nM in experiment [3], 2.1 nM in experiment [4] and 86.7 nM in [5]. This molecule also yielded a Kd in experiment [6] of 448 nM.

B9: B7H3-h1703-L2-3024 (antibody-drug conjugate of h1703 with drug-linker 3024) (antibody, human IgG1, kappa, V domains shown)
VH: B7 VH
VL: B7 VL
modifications: drug-linker 3024 coupled through a propylthiol linker (L2) to lysine residues of the antibody; positions not given; average y = 1.62 per antibody
notes: also called h1703-3024
Take B9: the half-maximal effective concentration (EC50) in experiment [3] stood at 15.1 nM; in [4], 4.97 nM; in experiment [5] it was 115 nM. The same molecule returned a Kd in experiment [9] of 219 nM.

One may read the EC50 as the concentration that produces a half-maximal response. The low end stands for an effect from little substance, the high end for a need for much substance. The Kd is the equilibrium constant for the complex coming apart.
